Three molecules from paper PMC12519566, “A TOM1 variant impairs interaction with TOLLIP, autophagosome-lysosome fusion and regulation of innate immunity” (Disease Models & Mechanisms, 2025) can be followed below.

For experiment [1], the target named is GST. The experiment is described as follows: cross-linking; BS3 (0.25-5 mM), 30 min at room temperature; TOLLIP and TOM1 preincubated for 30 min before BS3; SDS-PAGE.
Experiment [2] deals with GST. The experiment in a line: cross-linking; glutaraldehyde dilution series (0.01-1%), 5 min at 37°C; SDS-PAGE.
The target in experiment [3] is T1, TOLLIP (Homo sapiens, UniProt Q9H0E2).
T1 construct: human TOLLIP cDNA in pGEX6P1, expressed in E. coli Rosetta; GST-TOLLIP in the lipid overlay, TOLLIP in liposome co-sedimentation
The experiment in a line: lipid-protein overlay; liposome co-sedimentation. It counts as binding. As to conditions: without TOM1; overlay: PtdIns3P on PVDF, 60 nM GST-TOLLIP, pH 8.0, 4 C; sedimentation: 2.5 uM TOLLIP, DOPC/DOPE liposomes with 3% PtdIns3P.

Experiment [4] has as its target T2, TOM1 G307D, MYC-BirA fusion (BioID bait) (UniProt O60784 1-492, G307D).
T2 construct: also called TOM1 G307D variant; source: inducible Flp-In T-REx 293 cell line, induced with doxycycline and biotin, in cells
The experiment is described as follows: proximity labelling; BioID with mass spectrometry; Flp-In T-REx 293 cells induced with 2 µg/ml doxycycline and 50 µM biotin for 24 h; Strep-Tactin sepharose; three biological replicates. As to conditions: partners not purified.

Regarding GST (natural protein), the stoichiometry N in experiment [1] and in experiment [2] was 2 each time. Turning to `CCCCCCCCCCCCCCCC(=O)OC[C@H](COP(=O)(O)O[C@@H]1[C@H](O)[C@H](OP(=O)(O)O)[C@@H](O)[C@H](O)[C@H]1O)OC(=O)CCCCCCCCCCCCCCC` [dipalmitoyl PtdIns3P], the “lipid-protein overlay; liposome co-sedimentation” value in experiment [3] is “As expected, TOM1 WT significantly reduced TOLLIP binding to PtdIns3P (Fig. 2B)”.

B1: myosin VI (natural protein, human (endogenous in Flp-In T-REx 293), UniProt Q9UM54 1-1294, looked up)
chain: MEDGKPVWAPHPTDGFQMGNIVDIGPDSLTIEPLNQKGKTFLALINQVFPAEEDSKKDVEDNCSLMYLNEATLLHNIKVRYSKDRIYTYVANILIAVNPYFDIPKIYSSEAIKSYQGKSLGTRPPHVFAIADKAFRDMKVLKMSQSIIVSGESGAGKTENTKFVLRYLTESYGTGQDIDDRIVEANPLLEAFGNAKTVRNNNSSRFGKFVEIHFNEKSSVVGGFVSHYLLEKSRICVQGKEERNYHIFYRLCAGASEDIREKLHLSSPDNFRYLNRGCTRYFANKETDKQILQNRKSPEYLKAGSMKDPLLDDHGDFIRMCTAMKKIGLDDEEKLDLFRVVAGVLHLGNIDFEEAGSTSGGCNLKNKSAQSLEYCAELLGLDQDDLRVSLTTRVMLTTAGGTKGTVIKVPLKVEQANNARDALAKTVYSHLFDHVVNRVNQCFPFETSSYFIGVLDIAGFEYFEHNSFEQFCINYCNEKLQQFFNERILKEEQELYQKEGLGVNEVHYVDNQDCIDLIEAKLVGILDILDEENRLPQPSDQHFTSAVHQKHKDHFRLTIPRKSKLAVHRNIRDDEGFIIRHFAGAVCYETTQFVEKNNDALHMSLESLICESRDKFIRELFESSTNNNKDTKQKAGKLSFISVGNKFKTQLNLLLDKLRSTGASFIRCIKPNLKMTSHHFEGAQILSQLQCSGMVSVLDLMQGGYPSRASFHELYNMYKKYMPDKLARLDPRLFCKALFKALGLNENDYKFGLTKVFFRPGKFAEFDQIMKSDPDHLAELVKRVNHWLTCSRWKKVQWCSLSVIKLKNKIKYRAEACIKMQKTIRMWLCKRRHKPRIDGLVKVGTLKKRLDKFNEVVSVLKDGKPEMNKQIKNLEISIDTLMAKIKSTMMTQEQIQKEYDALVKSSEELLSALQKKKQQEEEAERLRRIQEEMEKERKRREEDEKRRRKEEEERRMKLEMEAKRKQEEEERKKREDDEKRIQAEVEAQLARQKEEESQQQAVLEQERRDRELALRIAQSEAELISDEAQADLALRRSLDSYPVSKNDGTRPKMTPEQMAKEMSEFLSRGPAVLATKAAAGTKKYDLSKWKYAELRDTINTSCDIELLAACREEFHRRLKVYHAWKSKNKKRNTETEQRAPKSVTDYDFAPFLNNSPQQNPAAQIPARQREIEMNRQQRFFRIPFIRPADQYKDPQSKKKGWWYAHFDGPWIARQMELHPDKPPILLVAGKDDMEMCELNLEETGLTRKRGAEILPRQFEEIWERCGGIQYLQNAIESRQARPTYATAMLQSLLK
notes: myosin VI, endogenous protein found by proximity labeling mass spectrometry; source: endogenous, Flp-In T-REx 293 cells
With B1, the “interaction relative to that of TOM1 WT with myosin VI” value in experiment [4] is 69%.
